Data from patent publication US20150218285A1 (TORAY INDUSTRIES, published 2015).

Molecular target: T1, CAPRIN-1 protein on the cell surface of human cancer cells (human, UniProt Q14444 2-709)
T1 sequence (looked up): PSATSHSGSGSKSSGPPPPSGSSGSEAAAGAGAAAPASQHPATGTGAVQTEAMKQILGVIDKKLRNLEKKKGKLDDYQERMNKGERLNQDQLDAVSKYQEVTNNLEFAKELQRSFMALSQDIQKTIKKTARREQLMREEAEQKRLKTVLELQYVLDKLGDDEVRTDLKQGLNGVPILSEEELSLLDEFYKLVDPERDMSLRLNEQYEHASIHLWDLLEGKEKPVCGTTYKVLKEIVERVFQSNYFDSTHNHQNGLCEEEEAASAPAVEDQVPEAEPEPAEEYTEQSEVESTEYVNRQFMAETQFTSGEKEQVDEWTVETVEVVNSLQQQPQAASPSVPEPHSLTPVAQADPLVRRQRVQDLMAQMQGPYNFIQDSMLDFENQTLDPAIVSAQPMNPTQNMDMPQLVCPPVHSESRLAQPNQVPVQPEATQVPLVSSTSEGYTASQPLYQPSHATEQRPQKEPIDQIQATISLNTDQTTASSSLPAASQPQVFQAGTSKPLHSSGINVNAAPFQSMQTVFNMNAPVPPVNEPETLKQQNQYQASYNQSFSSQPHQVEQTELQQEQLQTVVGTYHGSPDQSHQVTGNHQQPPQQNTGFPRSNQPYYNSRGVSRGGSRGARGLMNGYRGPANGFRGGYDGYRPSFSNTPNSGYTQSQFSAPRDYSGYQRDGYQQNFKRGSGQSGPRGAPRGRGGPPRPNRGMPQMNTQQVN
Assay: cell-based or functional assay

Row | ADCC activity on Hep3B, HepG2, SK-Hep-1, SW480 [%] | Binder | cytotoxicity (ADCC, 51Cr release, human NK cells) on Hep3B, HepG2, SK-Hep-1, SW480 [%] | cytotoxicity (ADCC, 51Cr release) on SK-Hep-1 [%]
1 | ≥ 20 | human-mouse chimeric anti-CAPRIN-1 antibody #26 (antibody, human IgG1, kappa) heavy: not shown light: PASSSDVLMTQTPLSLPVRLGDQSSISCRSSQSIVHSNGNTYLEWYLQKPGQSPKLLIYKVSNRFSGVPDRFSGSGSGTDFTLKISRVEPEDLGVYYCFQGSHVPYTSEGDQAEIKLATVAAPSVFIFPPSDEQLKSGTASVVCLLNNFYPREAKVQWKVDNALQSGNSQESVTEQDSKDSTYSLSSTLTLSKADYEKHKVYACEVTHQGLSSPVTKSFNRGEC |  | 
2 |  | human-mouse chimeric anti-CAPRIN-1 antibody #34 (antibody, human IgG1, kappa, V domains shown) VH: GAELVRPGTSVKVSCKASVYAFTNYLIEWVKQRPGQGLEWIGVINPKSGGTKYNEKFRGKATLTADKSSSTAYMQLSSLTSGDSAVYFCAITGTDYWGQGTTLTVSS VL: QGTRCDIQMTQTTSSLSASLGDRVTISCSASQGINNYLNWYQQKPDGTVKLLIYYTSSLRSGVPSRFSGSGSGTDYSLTISNLEPEDVATYYCQQYSKLPRTFGGGTKLEIKR | ≥ 20 | 
3 |  | human-mouse chimeric anti-CAPRIN-1 antibody #36 (antibody, human IgG1, kappa) heavy: not shown light: QDELSNPVTSGESVSISCRSSKSLLYKDGKTYLNWFLQRPGQSPQLLIYLMSTRASGVSDRFSGSGSGTDFTLEISRVKAEDVGVYYCQQLVEDPLTFGAGTKLELKRTVAAPSVFIFPPSDEQLKSGTASVVCLLNNFYPREAKVQWKVDNALQSGNSQESVTEQDSKDSTYSLSSTLTLSKADYEKHKVYACEVTHQGLSSPVTKSFNRGEC | ≥ 20 | 
4 |  | human-chicken chimeric antibody #2 (antibody, human IgG1, kappa, V domains shown) VH: AVTLDESGGGLQTPGGGLSLVCKASGFTFSSFDMGWVRQAPGKGLEFVAQINDAGSRTWYATAVKGRATISRDNGQTTVRLQLNNLRAEDTGTYYCTRGSGYVGAGAIDAWGHGTEVIVSA VL: AALTQPSSVSANPGETVKITCSGGSGYYGWYQQQKSPGSAPVTVIYQNDKRPSDIPSRFSGSGSGSTNTLTITGVQAEDEAVYFCGRYDSTDSGIFGAGTTLTVLT |  | ≥ 12
5 | ≥ 20 | human-mouse chimeric anti-CAPRIN-1 antibody #25 (antibody, human IgG1, kappa, V domains shown) VH: GPGLVQPSQSLSITCTVSGFSLTTYDLHWVRQSPGKGLEWLGVIWSGGSTDYNAAFISRLSISKDNSKSQVFFKMNSLQANDTAIYYCARNYGYSAWFAYWGQGTLVTVSA VL: DVLMTQTPLSLPVSLGDQASISCRSSQSIVHSNGNTYLEWYLQKPGQSPKLLIYKVSNRFSGVPDRFSGSGSGTDFTLKISRVEAEDLGVYYCFQGSHVPLTFGAGTKLELKR |  | 
6 |  | human-mouse chimeric anti-CAPRIN-1 antibody #30 (antibody) heavy: not shown light: DVQITQSPSYLAASPGETITINCRASKSISKYLAWYQEKPGKTNKLLIYSGSTLQSGIPSRFSGSGSGTDFTLTISSLEPEDFAMYYCQQHNEYPYTFGGGTKLEIKRTVAAPSVFIFPPSDEQLKSGTASVVCLLNNFYPREAKVQWKVDNALQSGNSQESVTEQDSKDSTYSLSSTLTLSKADYEKHKVYACEVTHQGLSSPVTKSFNRGEC | ≥ 20 | 
7 |  | human-mouse chimeric anti-CAPRIN-1 antibody #31 (antibody, human IgG1, kappa) heavy: not shown light: DVQITQSPSYLAASPGETITINCRASKSISKYLAWYQEKPGKTNKLLIYSGSTLQSGIPSRFSGSGSGTDFTLTISSLEPEDFAMYYCQQHNEYPWTFGGGTKLEIKRTVAAPSVFIFPPSDEQLKSGTASVVCLLNNFYPREAKVQWKVDNALQSGNSQESVTEQDSKDSTYSLSSTLTLSKADYEKHKVYACEVTHQGLSSPVTKSFNRGEC | ≥ 20 | 
8 | ≥ 20 | human-mouse chimeric anti-CAPRIN-1 antibody #23 (antibody, human IgG1, kappa, V domains shown) VH: GGGLVKPGGSLKLSCAASGFTFSSYGMSWVRQTPEKRLEWVATISSGGSYTYYPDSVKGRFTISRDNAKNTLYLQMSSLRSEDTAMYYCASLASYYFDYWGQGTTLTVSS VL: GARCDVQMIQSPSSLSASLGDIVTMTCQASQGTSINLNWFQQKPGKAPKLLIYGASSLEDGVPSRFSGSCFGTDFTLTISSLEDEDMATYFCLQHSYLPPLTFGAGTKLELKR |  | 
9 | ≥ 20 | human-mouse chimeric anti-CAPRIN-1 antibody #24 (antibody, human IgG1, kappa, V domains shown) VH: GGGLVKPGGSLKLSCAASGFTFSSYGMSWVRQTPEKRLEWVATISSGGSYTYYPDSVKGRFTISRDNAKNTLYLQMSSLRSEDTAMYYCASLASYYFDYWGQGTTLTVSS VL: not shown |  | 
